Laboratory results published in patent publication US20200277397A1 (Genmab, published 2020).
Changes are numbered by the printed parent chain. Numbers in names are those of the source.

Experiments:
full length human 5T4 [1] = molecular target: T1, full length human 5T4 (human, UniProt Q13641 32-420); test: flow cytometry, HeLa cells, PE anti-human IgG F(ab')2, MFI PE
T1 construct: Uniprot Q13641; Used here also for endogenous 5T4 on the human tumour cell lines
T1 sequence: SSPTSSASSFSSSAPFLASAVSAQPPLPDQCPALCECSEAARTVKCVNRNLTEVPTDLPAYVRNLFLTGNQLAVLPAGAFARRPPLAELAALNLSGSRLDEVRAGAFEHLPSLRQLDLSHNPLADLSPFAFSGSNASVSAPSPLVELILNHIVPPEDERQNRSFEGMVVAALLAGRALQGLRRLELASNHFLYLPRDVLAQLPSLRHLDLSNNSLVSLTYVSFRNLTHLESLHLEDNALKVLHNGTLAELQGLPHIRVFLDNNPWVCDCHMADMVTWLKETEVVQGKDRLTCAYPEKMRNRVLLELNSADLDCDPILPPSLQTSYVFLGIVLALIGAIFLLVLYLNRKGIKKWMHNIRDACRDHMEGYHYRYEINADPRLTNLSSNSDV

full length human 5T4 [2] = molecular target: T1, full length human 5T4; test: flow cytometry, MDA-MB-231 cells, PE anti-human IgG F(ab')2, MFI PE
[3] = molecular target: T2, full length cynomolgus monkey 5T4 (cynomolgus monkey, UniProt Q4R8Y9 35-420); test: flow cytometry, HEK-293 cells transfected with cynomolgus monkey 5T4 (right panel), PE anti-human IgG F(ab')2, MFI PE
T2 construct: Uniprot Q4R8Y9; also called cynomolgus monkey 5T4 on HEK-293 cells
T2 sequence: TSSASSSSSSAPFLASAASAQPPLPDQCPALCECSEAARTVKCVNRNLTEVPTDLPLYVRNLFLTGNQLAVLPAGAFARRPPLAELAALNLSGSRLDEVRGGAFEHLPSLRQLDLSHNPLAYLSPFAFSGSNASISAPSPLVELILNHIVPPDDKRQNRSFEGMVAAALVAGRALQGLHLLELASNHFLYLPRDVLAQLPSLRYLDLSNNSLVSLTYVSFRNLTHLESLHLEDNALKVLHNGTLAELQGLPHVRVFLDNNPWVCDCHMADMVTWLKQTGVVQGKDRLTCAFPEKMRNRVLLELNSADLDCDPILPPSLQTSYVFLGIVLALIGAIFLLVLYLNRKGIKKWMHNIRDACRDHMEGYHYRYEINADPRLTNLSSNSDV

full length human 5T4 [4] = molecular target: T1, full length human 5T4; test: flow cytometry, MDA-MB-231 cells, PE anti-human IgG F(ab')2, MFI PE; remark: listed apart in the source
[5] = molecular target: T2, full length cynomolgus monkey 5T4; test: flow cytometry, HEK-293 cells transfected with cynomolgus monkey 5T4 (right panel), PE anti-human IgG F(ab')2, MFI PE; remark: listed apart in the source
[6] = molecular target: T2, full length cynomolgus monkey 5T4; test: as above; remark: listed apart in the source
[7] = molecular target: T2, full length cynomolgus monkey 5T4; test: flow cytometry, HEK-293 cells transfected with full length cynomolgus monkey 5T4 (right panel), FITC anti-human IgG F(ab')2, MFI FITC
Protocol: (§1) Binding of monovalent and bivalent 5T4 antibodies was analysed using HEK-293 cells transiently transfected with full length human (left panels) or cynomolgus monkey 5T4 (right panels). Cells were incubated with increasing concentrations of antibodies, as indicated. After secondary labelling with FITC conjugated goat-anti-human IgG F(ab′)2, binding was analysed by flow cytometry. […] Data are presented as mean fluorescence intensity (MFI) values of two technical replicates±SD.
(§2) Experiments were performed in technical duplicate. After washing twice in staining buffer, cells were incubated in 50 μL secondary antibody at 4° C. for 30 min. […] Cells were washed twice in staining buffer, re-suspended in 30 μL staining buffer and analyzed on an iQue Screener (Intellicyt Corporation, USA). Binding curves were analyzed using non-linear regression (sigmoidal dose-response with variable slope) using GraphPad Prism V7.02 software (Graph Pad Software, San Diego, Calif., USA).

full length human 5T4 [8] = molecular target: T1, full length human 5T4; test: flow cytometry, HEK-293 cells transfected with full length human 5T4 (left panel), FITC anti-human IgG F(ab')2, MFI FITC
Protocol: as §1, §2

[9] = molecular target: T2, full length cynomolgus monkey 5T4; test: flow cytometry, HEK-293 cells transfected with full length cynomolgus monkey 5T4 (right panel), FITC anti-human IgG F(ab')2, MFI FITC; remark: listed apart in the source
Protocol: as §1, §2

full length human 5T4 [10] = molecular target: T1, full length human 5T4; test: flow cytometry, MDA-MB-231 cells (right panel), FITC anti-human IgG F(ab')2, MFI FITC
Protocol: (§3) After washing twice in staining buffer, cells were incubated in 50 μL secondary antibody at 4° C. for 30 min. […] Next, cells were washed twice in staining buffer, re-suspended in 120 μL staining buffer and analyzed on a BD LSRFortessa FACS (BD Biosciences, USA). Binding curves were analyzed using non-linear regression (sigmoidal dose-response with variable slope) using GraphPad Prism V7.02 software (GraphPad Software, San Diego, Calif., USA).

full length human 5T4 [11] = molecular target: T1, full length human 5T4; test: flow cytometry, HeLa cells, PE anti-human IgG F(ab')2, MFI PE; remark: listed apart in the source
full length human 5T4 [12] = molecular target: T1, full length human 5T4; test: flow cytometry, HEK-293 cells transfected with human 5T4 (left panel), PE anti-human IgG F(ab')2, MFI PE
full length human 5T4 [13] = molecular target: T1, full length human 5T4; test: flow cytometry, HeLa cells (left panel), FITC anti-human IgG F(ab')2, MFI FITC
Protocol: as §3

full length human 5T4 [14] = molecular target: T1, full length human 5T4; test: flow cytometry, MDA-MB-231 cells (right panel), FITC anti-human IgG F(ab')2, MFI FITC; remark: listed apart in the source
Protocol: as §3

full length human 5T4 [15] = molecular target: T1, full length human 5T4; test: flow cytometry, HeLa cells (left panel), FITC anti-human IgG F(ab')2, MFI FITC; remark: listed apart in the source
Protocol: as §3

[16] = molecular target: T2, full length cynomolgus monkey 5T4; test: flow cytometry, HEK-293 cells transfected with cynomolgus monkey 5T4 (right panel), PE anti-human IgG F(ab')2, MFI PE; remark: listed apart in the source
[17] = molecular target: T2, full length cynomolgus monkey 5T4; test: flow cytometry, HEK-293 cells transfected with full length cynomolgus monkey 5T4 (right panel), FITC anti-human IgG F(ab')2, MFI FITC; remark: listed apart in the source
Protocol: as §1, §2

full length human 5T4 [18] = molecular target: T1, full length human 5T4; test: flow cytometry, HEK-293 cells transfected with full length human 5T4 (left panel), FITC anti-human IgG F(ab')2, MFI FITC; remark: listed apart in the source
Protocol: as §1, §2

full length human 5T4 [19] = molecular target: T1, full length human 5T4; test: flow cytometry, MDA-MB-231 cells, PE anti-human IgG F(ab')2, MFI PE; remark: listed apart in the source
full length human 5T4 [20] = molecular target: T1, full length human 5T4; test: flow cytometry, HeLa cells, PE anti-human IgG F(ab')2, MFI PE; remark: listed apart in the source
full length human 5T4 [21] = molecular target: T1, full length human 5T4; test: flow cytometry, HEK-293 cells transfected with human 5T4 (left panel), PE anti-human IgG F(ab')2, MFI PE; remark: listed apart in the source

B1: bsIgG1-huCD3-H101G-FEALx5T4-106-FEAR (bispecific antibody)
heavy 1: not shown
VL: not shown
heavy 2: EVQLVQSGAEVKKPGESLKISCKGSGYRFTSYWIGWVRQMPGKGLEWMGIIYPGDSDARYSPSFQGQVTISADKSISTAYLQWSSLKASDTGMYYCARSVLFDYWGQGTLVTVSSASTKGPSVFPLAPSSKSTSGGTAALGCLVKDYFPEPVTVSWNSGALTSGVHTFPAVLQSSGLYSLSSVVTVPSSSLGTQTYICNVNHKPSNTKVDKRVEPKSCDKTHTCPPCPAPEFEGGPSVFLFPPKPKDTLMISRTPEVTCVVVAVSHEDPEVKFNWYVDGVEVHNAKTKPREEQYNSTYRVVSVLTVLHQDWLNGKEYKCKVSNKALPAPIEKTISKAKGQPREPQVYTLPPSREEMTKNQVSLTCLVKGFYPSDIAVEWESNGQPENNYKTTPPVLDSDGSFFLYSRLTVDKSRWQQGNVFSCSVMHEALHNHYTQKSLSLSPGK
light: AIQLTQSPSSLSASVGDRVTITCRASQGISSALAWYQQKPGKAPKLLIYDVSNLESGVPSRFSGSGSGTDFTLTISSLQPEDFATYYCQQFNSYPHTFGQGTKLEIKRTVAAPSVFIFPPSDEQLKSGTASVVCLLNNFYPREAKVQWKVDNALQSGNSQESVTEQDSKDSTYSLSSTLTLSKADYEKHKVYACEVTHQGLSSPVTKSFNRGEC
Full length human 5T4 [1]
  EC50 (read off the curve): ~0.1 µg/mL
Full length human 5T4 [2]
  EC50 (read off the curve): ~0.1 µg/mL
[3]
  binding result: binds

B2: IgG1-5T4-207-FEAR (antibody, V domains shown)
VH: QVQLQQWGAGLLKPSETLSLTCAVYGGSFSGYYWTWIRQPPGKGLEWIGEIDHSESTNYNPSLKSRVTISVDTSKNQFSLKLSSVTAADTAVYYCAGWFGELYHYYYGMDVWGQGTTVTVSS
VL: EIVLTQSPATLSLSPGERATLSCRASQSVSSYLAWYQQKPGQAPRLLIYDASNRATGIPARFSGSGSGTDFTLTISSLEPEDFAVYYCQQRSNWPLTFGGGTKVEIKR
notes: Human IgG1 FEAR, kappa (as for m12)
Full length human 5T4 [4]
  EC50 (read off the curve): ~0.02 µg/mL
[5]
  EC50 (read off the curve): ~0.1 µg/mL

B3: IgG1-5T4-076-FEAR (antibody, V domains shown)
VH: QVQLVQSGAEVKKPGASVKVSCKASGYTFTSYGISWVRQAPGQGLEWMGWISAYNGNTNYAQKLQGRVTMTTDTSTRTAYMELRSLRSDDTAVYYCARDPGYFDWLYGDYWGQGTLVTVSS
VL: AIQLTQSPSSLSASVGDRVTITCRASQGISSALAWYQQKPGKAPKLLIYDASSLESGVPSRFSGSGSGTDFTLTISSLQPEDFATYYCQQFNSYPRTFGQGTKVEIKR
notes: as for B2
[6]
  EC50 (read off the curve): ~0.01 µg/mL

B4: bsIgG1-huCD3-H101G-FEALx5T4-H8-FEAR (bispecific antibody)
heavy 1: not shown
VL 1: not shown
heavy 2: EVQLQQSGPDLVKPGASVKISCKASGYSFTGYYMHWVKQSHGKSLEWIGRINPNNGVTLYNQKFKDKAILTVDKSSTTAYMELRSLTSEDSAVYYCARSTMITNYVMDYWGQVTSVTVSSASTKGPSVFPLAPSSKSTSGGTAALGCLVKDYFPEPVTVSWNSGALTSGVHTFPAVLQSSGLYSLSSVVTVPSSSLGTQTYICNVNHKPSNTKVDKRVEPKSCDKTHTCPPCPAPEFEGGPSVFLFPPKPKDTLMISRTPEVTCVVVAVSHEDPEVKFNWYVDGVEVHNAKTKPREEQYNSTYRVVSVLTVLHQDWLNGKEYKCKVSNKALPAPIEKTISKAKGQPREPQVYTLPPSREEMTKNQVSLTCLVKGFYPSDIAVEWESNGQPENNYKTTPPVLDSDGSFFLYSRLTVDKSRWQQGNVFSCSVMHEALHNHYTQKSLSLSPGK
VL 2: SIVMTQTPTFLLVSAGDRVTITCKASQSVSNDVAWYQQKPGQSPTLLISYTSSRYAGVPDRFIGSGYGTDFTFTISTLQAEDLAVYFCQQDYNSPPTFGGGTKLEIK
[7]
  EC50 (read off the curve): ~0.1 µg/mL
Full length human 5T4 [8]
  binding result: binds

B5: bsIgG1-huCD3-H101G-FEALx5T4-207-FEAR (bispecific antibody)
heavy 1: not shown
VL: not shown
heavy 2: QVQLQQWGAGLLKPSETLSLTCAVYGGSFSGYYWTWIRQPPGKGLEWIGEIDHSESTNYNPSLKSRVTISVDTSKNQFSLKLSSVTAADTAVYYCAGWFGELYHYYYGMDVWGQGTTVTVSSASTKGPSVFPLAPSSKSTSGGTAALGCLVKDYFPEPVTVSWNSGALTSGVHTFPAVLQSSGLYSLSSVVTVPSSSLGTQTYICNVNHKPSNTKVDKRVEPKSCDKTHTCPPCPAPEFEGGPSVFLFPPKPKDTLMISRTPEVTCVVVAVSHEDPEVKFNWYVDGVEVHNAKTKPREEQYNSTYRVVSVLTVLHQDWLNGKEYKCKVSNKALPAPIEKTISKAKGQPREPQVYTLPPSREEMTKNQVSLTCLVKGFYPSDIAVEWESNGQPENNYKTTPPVLDSDGSFFLYSRLTVDKSRWQQGNVFSCSVMHEALHNHYTQKSLSLSPGK
light: not shown
Full length human 5T4 [4]
  EC50 (read off the curve): ~0.04 µg/mL
[9]
  EC50 (read off the curve): ~0.1 µg/mL
Full length human 5T4 [10]
  EC50 (read off the curve): ~0.1 µg/mL
[5]
  EC50 (read off the curve): ~0.03 µg/mL
Full length human 5T4 [11]
  EC50 (read off the curve): ~0.04 µg/mL
Full length human 5T4 [12]
  EC50 (read off the curve): ~0.05 µg/mL
Full length human 5T4 [13]
  EC50 (read off the curve): ~0.05 µg/mL

B6: bsIgG1-huCD3-H101G-FEALx5T4-226-FEAR (bispecific antibody)
heavy 1: not shown
VL: not shown
heavy 2: B5 heavy 2 with T35S, E55G, G97A, Y103W, H104D
light: not shown
Full length human 5T4 [14]
  EC50 (read off the curve): ~0.09 µg/mL
Full length human 5T4 [15]
  EC50 (read off the curve): ~0.02 µg/mL
[16]
  EC50 (read off the curve): ~0.06 µg/mL
[17]
  EC50 (read off the curve): ~0.1 µg/mL
Full length human 5T4 [18]
  EC50 (read off the curve): ~0.2 µg/mL
Full length human 5T4 [19]
  EC50 (read off the curve): ~0.04 µg/mL
Full length human 5T4 [20]
  EC50 (read off the curve): ~0.04 µg/mL
Full length human 5T4 [21]
  EC50 (read off the curve): ~0.09 µg/mL
